± gives the standard error. This sample holds only a part of the variants without activity.
B1: glmS ribozyme (parent)
chain: AUAAAAGCGCCAGAACUACAGAAAUGUAGUUGACGAGGAGGAGGUUUAUCGAAUUUUCGGCGGAUGCCUCCAAA

Variants of: B1
Experiment: self-cleavage kobs at 2500 uM GlcN6P; higher = faster cleavage; RNA array
Conditions: with glucosamine-6-phosphate
Summary of the method: (§1)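 Over ~14 h at 37 °C, tiles were imaged as glucosamine-6-phosphate (40 μM to 10 mM) in HEPES/KCl/Mg(OAc)2 buffer flowed across sequenced MiSeq chips. The chips carried barcoded ribozyme variants transcribed in situ by E. coli RNA polymerase and tracked with a hybridised Cy3 probe. After normalisation to baseline and to non-cleaving reference variants, one- or two-exponential decay fits of per-tile medians gave kobs. kcat and KM followed from weighted Michaelis–Menten fits across concentrations.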

Variant | self-cleavage kobs at 2500 uM GlcN6P [s⁻¹]
U31A G38U G51A | < 1e-05
G13U U49C C50A G59A C70G | 3.99e-05 ± 2e-05
A15C A23C | 0.00398 ± 0.0014
C16A A39C A42U G51C C61G | < 1e-05
G29A G35U A42G A52U | < 1e-05
A14C G32A C67G | 6.42e-05 ± 1.9e-05
A14U U54C U65G | 0.000411 ± 0.00014
C16U A53U A64U | 4.5e-05 ± 2.3e-05
U30C G66A C67G | 4.46e-05 ± 1.2e-05
A15U G32U A36G A64G C68U | < 1e-05
A15C G66U C67G | 4.27e-05 ± 1.7e-05
G13U G43U C61G | < 1e-05
G29A U31A G38C | < 1e-05
G13C G40A G60U | < 1e-05
A15G G44U A64U U65G | < 1e-05
A15U U31G G40A | 0.000101 ± 2.5e-05
G13U A14G U47C | 8e-05 ± 2.7e-05
A14C C16U G43C | < 1e-05
G32A G40A U69G | < 1e-05

Variant | self-cleavage kobs at 2500 uM GlcN6P [s⁻¹]
A14G G41A G60U | < 1e-05
G29A A48U A53U C58A G59U | < 1e-05
C16A G37C U55C | < 1e-05
U31A A39U C70G | 0.000232 ± 7.5e-05
G13U A36G G60A C61U | < 1e-05
A15G G38A A48U | < 1e-05
A15G G29U U47G U54A | 0.000248 ± 6.2e-05
A14U G40U G60A C70G C71U | < 1e-05
A15U G32A A39U C71U | 0.000236 ± 0.00011
A15G C34A G63A | < 1e-05
C16A G37U C61G U69G | 5.77e-05 ± 1.7e-05
A15U A39C U45A | 0.000454 ± 0.00014
U30C U55C U56G U69C | < 1e-05
G13C C71U | 9.01e-05 ± 1.5e-05
G26U G32C G35U G38U G63C | < 1e-05
A14G C16G U30G U49C U54A C67G C68U | < 1e-05
G29A G35U G41A | < 1e-05
G29U A64G C67G | 6.02e-05 ± 1.3e-05

Variants of: B1
Experiment: self-cleavage kobs at 10000 uM GlcN6P; higher = faster cleavage; RNA array
Conditions: with glucosamine-6-phosphate
Summary of the method: as §1

Variant | self-cleavage kobs at 10000 uM GlcN6P [s⁻¹]
A15C A23C | 0.00556 ± 0.0014
A15C G66U C67G | 0.000165 ± 4.9e-05
G13U A14G U47C | 0.000208 ± 5.4e-05
G32A G40A U69G | < 1e-05
A15U G32A A39U C71U | 0.000208 ± 6.3e-05
G13C C71U | 0.000149 ± 1.6e-05
A14G C16G U30G U49C U54A C67G C68U | < 1e-05

From the supplement of paper PMC7125110
